Molecular target: T1, CD3 epsilon homodimer protein (UniProt P07766 23-126)
T1 construct: also called CD3 (CD3 epsilon)
Experiment: SPR, CD3 epsilon homodimer on chip, one-arm antibody as analyte;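 note: surface plasmon resonance at 25 °C with CD3 epsilon homodimer amine-coupled to a CM4 sensor chip, antibody injected as analyte, HBS-EP+ as running buffer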

T1 sequence (P07766 23-126): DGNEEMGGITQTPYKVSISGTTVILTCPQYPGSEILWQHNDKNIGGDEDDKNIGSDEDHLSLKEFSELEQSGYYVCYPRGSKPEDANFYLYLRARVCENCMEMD

Row | KD ratio (KD of CE115HA000/KD of altered form) | Binder
1 | 6.67 | CE115HA000 H96Y (antibody, human IgG1, kappa, L234A L235A, N297A, name in Kabat numbering, one-arm antibody) heavy: QVQLVESGGGVVQPGRSLRLSCAASGFTFSNAWMHWVRQAPGKGLEWVAQIKAKSNNYATYYAESVKGRFTISRDDSKNSLYLQMNSLKTEDTAVYYCRYVYYGAYYGVDAWGQGTTVTVSSASTKGPSVFPLAPSSKSTSGGTAALGCLVKDYFPEPVTVSWNSGALTSGVHTFPAVLQSSGLYSLSSVVTVPSSSLGTQTYICNVNHKPSNTKVDKKVEPKSCDKTHTCPPCPAPEAAGGPSVFLFPPKPKDTLMISRTPEVTCVVVDVSHEDPEVKFNWYVDGVEVHNAKTKPREEQYASTYRVVSVLTVLHQDWLNGKEYKCKVSNKALPAPIEKTISKAKGQPREPQVYTLPPSRCELTKNQVSLSCAVKGFYPSDIAVEWESNGQPENNYKTTPPVLDSDGSFFLVSKLTVDKSRWQQGNVFSCSVMHEALHNHYTQKSLSLSPDYKDDDDK EPKSSDKTHTCPPCPAPELLGGPSVFLFPPKPKDTLMISRTPEVTCVVVDVSHEDPEVKFNWYVDGVEVHNAKTKPREEQYNSTYRVVSVLTVLHQDWLNGKEYKCKVSNKALPAPIEKTISKAKGQPREPQVCTLPPSRDELTKNQVSLWCLVKGFYPSDIAVEWESNGQPENNYKTTPPVLDSDGSFFLYSKLTVDKSRWQQGNVFSCSVMHEALHNRYTQKSLSLSP light: DIVMTQSPLSLPVTPGEPASISCRSSQSLVHSNRNTYLHWYQQKPGQAPRLLIYKVSNRFSGVPDRFSGSGSGTDFTLKISRVEAEDVGVYYCGQGTQVPYTFGQGTKLEIKRTVAAPSVFIFPPSDEQLKSGTASVVCLLNNFYPREAKVQWKVDNALQSGNSQESVTEQDSKDSTYSLSSTLTLSKADYEKHKVYACEVTHQGLSSPVTKSFNRGEC
2 | 0.54 | CE115HA000 I51E (antibody, human IgG1, kappa, L234A L235A, N297A, name in Kabat numbering, one-arm antibody) heavy: QVQLVESGGGVVQPGRSLRLSCAASGFTFSNAWMHWVRQAPGKGLEWVAQEKAKSNNYATYYAESVKGRFTISRDDSKNSLYLQMNSLKTEDTAVYYCRYVHYGAYYGVDAWGQGTTVTVSSASTKGPSVFPLAPSSKSTSGGTAALGCLVKDYFPEPVTVSWNSGALTSGVHTFPAVLQSSGLYSLSSVVTVPSSSLGTQTYICNVNHKPSNTKVDKKVEPKSCDKTHTCPPCPAPEAAGGPSVFLFPPKPKDTLMISRTPEVTCVVVDVSHEDPEVKFNWYVDGVEVHNAKTKPREEQYASTYRVVSVLTVLHQDWLNGKEYKCKVSNKALPAPIEKTISKAKGQPREPQVYTLPPSRCELTKNQVSLSCAVKGFYPSDIAVEWESNGQPENNYKTTPPVLDSDGSFFLVSKLTVDKSRWQQGNVFSCSVMHEALHNHYTQKSLSLSPDYKDDDDK EPKSSDKTHTCPPCPAPELLGGPSVFLFPPKPKDTLMISRTPEVTCVVVDVSHEDPEVKFNWYVDGVEVHNAKTKPREEQYNSTYRVVSVLTVLHQDWLNGKEYKCKVSNKALPAPIEKTISKAKGQPREPQVCTLPPSRDELTKNQVSLWCLVKGFYPSDIAVEWESNGQPENNYKTTPPVLDSDGSFFLYSKLTVDKSRWQQGNVFSCSVMHEALHNRYTQKSLSLSP light: DIVMTQSPLSLPVTPGEPASISCRSSQSLVHSNRNTYLHWYQQKPGQAPRLLIYKVSNRFSGVPDRFSGSGSGTDFTLKISRVEAEDVGVYYCGQGTQVPYTFGQGTKLEIKRTVAAPSVFIFPPSDEQLKSGTASVVCLLNNFYPREAKVQWKVDNALQSGNSQESVTEQDSKDSTYSLSSTLTLSKADYEKHKVYACEVTHQGLSSPVTKSFNRGEC
3 | 166 | CE115HA000 K52D (antibody, human IgG1, kappa, L234A L235A, N297A, name in Kabat numbering, one-arm antibody) heavy: QVQLVESGGGVVQPGRSLRLSCAASGFTFSNAWMHWVRQAPGKGLEWVAQIDAKSNNYATYYAESVKGRFTISRDDSKNSLYLQMNSLKTEDTAVYYCRYVHYGAYYGVDAWGQGTTVTVSSASTKGPSVFPLAPSSKSTSGGTAALGCLVKDYFPEPVTVSWNSGALTSGVHTFPAVLQSSGLYSLSSVVTVPSSSLGTQTYICNVNHKPSNTKVDKKVEPKSCDKTHTCPPCPAPEAAGGPSVFLFPPKPKDTLMISRTPEVTCVVVDVSHEDPEVKFNWYVDGVEVHNAKTKPREEQYASTYRVVSVLTVLHQDWLNGKEYKCKVSNKALPAPIEKTISKAKGQPREPQVYTLPPSRCELTKNQVSLSCAVKGFYPSDIAVEWESNGQPENNYKTTPPVLDSDGSFFLVSKLTVDKSRWQQGNVFSCSVMHEALHNHYTQKSLSLSPDYKDDDDK EPKSSDKTHTCPPCPAPELLGGPSVFLFPPKPKDTLMISRTPEVTCVVVDVSHEDPEVKFNWYVDGVEVHNAKTKPREEQYNSTYRVVSVLTVLHQDWLNGKEYKCKVSNKALPAPIEKTISKAKGQPREPQVCTLPPSRDELTKNQVSLWCLVKGFYPSDIAVEWESNGQPENNYKTTPPVLDSDGSFFLYSKLTVDKSRWQQGNVFSCSVMHEALHNRYTQKSLSLSP light: DIVMTQSPLSLPVTPGEPASISCRSSQSLVHSNRNTYLHWYQQKPGQAPRLLIYKVSNRFSGVPDRFSGSGSGTDFTLKISRVEAEDVGVYYCGQGTQVPYTFGQGTKLEIKRTVAAPSVFIFPPSDEQLKSGTASVVCLLNNFYPREAKVQWKVDNALQSGNSQESVTEQDSKDSTYSLSSTLTLSKADYEKHKVYACEVTHQGLSSPVTKSFNRGEC
4 | 0.89 | CE115HA000 K43Q (antibody, human IgG1, kappa, L234A L235A, N297A, name in Kabat numbering, one-arm antibody) heavy: QVQLVESGGGVVQPGRSLRLSCAASGFTFSNAWMHWVRQAPGQGLEWVAQIKAKSNNYATYYAESVKGRFTISRDDSKNSLYLQMNSLKTEDTAVYYCRYVHYGAYYGVDAWGQGTTVTVSSASTKGPSVFPLAPSSKSTSGGTAALGCLVKDYFPEPVTVSWNSGALTSGVHTFPAVLQSSGLYSLSSVVTVPSSSLGTQTYICNVNHKPSNTKVDKKVEPKSCDKTHTCPPCPAPEAAGGPSVFLFPPKPKDTLMISRTPEVTCVVVDVSHEDPEVKFNWYVDGVEVHNAKTKPREEQYASTYRVVSVLTVLHQDWLNGKEYKCKVSNKALPAPIEKTISKAKGQPREPQVYTLPPSRCELTKNQVSLSCAVKGFYPSDIAVEWESNGQPENNYKTTPPVLDSDGSFFLVSKLTVDKSRWQQGNVFSCSVMHEALHNHYTQKSLSLSPDYKDDDDK EPKSSDKTHTCPPCPAPELLGGPSVFLFPPKPKDTLMISRTPEVTCVVVDVSHEDPEVKFNWYVDGVEVHNAKTKPREEQYNSTYRVVSVLTVLHQDWLNGKEYKCKVSNKALPAPIEKTISKAKGQPREPQVCTLPPSRDELTKNQVSLWCLVKGFYPSDIAVEWESNGQPENNYKTTPPVLDSDGSFFLYSKLTVDKSRWQQGNVFSCSVMHEALHNRYTQKSLSLSP light: DIVMTQSPLSLPVTPGEPASISCRSSQSLVHSNRNTYLHWYQQKPGQAPRLLIYKVSNRFSGVPDRFSGSGSGTDFTLKISRVEAEDVGVYYCGQGTQVPYTFGQGTKLEIKRTVAAPSVFIFPPSDEQLKSGTASVVCLLNNFYPREAKVQWKVDNALQSGNSQESVTEQDSKDSTYSLSSTLTLSKADYEKHKVYACEVTHQGLSSPVTKSFNRGEC
5 | 0.88 | CE115HA000 K43E (antibody, human IgG1, kappa, L234A L235A, N297A, name in Kabat numbering, one-arm antibody) heavy: QVQLVESGGGVVQPGRSLRLSCAASGFTFSNAWMHWVRQAPGEGLEWVAQIKAKSNNYATYYAESVKGRFTISRDDSKNSLYLQMNSLKTEDTAVYYCRYVHYGAYYGVDAWGQGTTVTVSSASTKGPSVFPLAPSSKSTSGGTAALGCLVKDYFPEPVTVSWNSGALTSGVHTFPAVLQSSGLYSLSSVVTVPSSSLGTQTYICNVNHKPSNTKVDKKVEPKSCDKTHTCPPCPAPEAAGGPSVFLFPPKPKDTLMISRTPEVTCVVVDVSHEDPEVKFNWYVDGVEVHNAKTKPREEQYASTYRVVSVLTVLHQDWLNGKEYKCKVSNKALPAPIEKTISKAKGQPREPQVYTLPPSRCELTKNQVSLSCAVKGFYPSDIAVEWESNGQPENNYKTTPPVLDSDGSFFLVSKLTVDKSRWQQGNVFSCSVMHEALHNHYTQKSLSLSPDYKDDDDK EPKSSDKTHTCPPCPAPELLGGPSVFLFPPKPKDTLMISRTPEVTCVVVDVSHEDPEVKFNWYVDGVEVHNAKTKPREEQYNSTYRVVSVLTVLHQDWLNGKEYKCKVSNKALPAPIEKTISKAKGQPREPQVCTLPPSRDELTKNQVSLWCLVKGFYPSDIAVEWESNGQPENNYKTTPPVLDSDGSFFLYSKLTVDKSRWQQGNVFSCSVMHEALHNRYTQKSLSLSP light: DIVMTQSPLSLPVTPGEPASISCRSSQSLVHSNRNTYLHWYQQKPGQAPRLLIYKVSNRFSGVPDRFSGSGSGTDFTLKISRVEAEDVGVYYCGQGTQVPYTFGQGTKLEIKRTVAAPSVFIFPPSDEQLKSGTASVVCLLNNFYPREAKVQWKVDNALQSGNSQESVTEQDSKDSTYSLSSTLTLSKADYEKHKVYACEVTHQGLSSPVTKSFNRGEC
6 | 6.37 | CE115HA000 I51D (antibody, human IgG1, kappa, L234A L235A, N297A, name in Kabat numbering, one-arm antibody) heavy: QVQLVESGGGVVQPGRSLRLSCAASGFTFSNAWMHWVRQAPGKGLEWVAQDKAKSNNYATYYAESVKGRFTISRDDSKNSLYLQMNSLKTEDTAVYYCRYVHYGAYYGVDAWGQGTTVTVSSASTKGPSVFPLAPSSKSTSGGTAALGCLVKDYFPEPVTVSWNSGALTSGVHTFPAVLQSSGLYSLSSVVTVPSSSLGTQTYICNVNHKPSNTKVDKKVEPKSCDKTHTCPPCPAPEAAGGPSVFLFPPKPKDTLMISRTPEVTCVVVDVSHEDPEVKFNWYVDGVEVHNAKTKPREEQYASTYRVVSVLTVLHQDWLNGKEYKCKVSNKALPAPIEKTISKAKGQPREPQVYTLPPSRCELTKNQVSLSCAVKGFYPSDIAVEWESNGQPENNYKTTPPVLDSDGSFFLVSKLTVDKSRWQQGNVFSCSVMHEALHNHYTQKSLSLSPDYKDDDDK EPKSSDKTHTCPPCPAPELLGGPSVFLFPPKPKDTLMISRTPEVTCVVVDVSHEDPEVKFNWYVDGVEVHNAKTKPREEQYNSTYRVVSVLTVLHQDWLNGKEYKCKVSNKALPAPIEKTISKAKGQPREPQVCTLPPSRDELTKNQVSLWCLVKGFYPSDIAVEWESNGQPENNYKTTPPVLDSDGSFFLYSKLTVDKSRWQQGNVFSCSVMHEALHNRYTQKSLSLSP light: DIVMTQSPLSLPVTPGEPASISCRSSQSLVHSNRNTYLHWYQQKPGQAPRLLIYKVSNRFSGVPDRFSGSGSGTDFTLKISRVEAEDVGVYYCGQGTQVPYTFGQGTKLEIKRTVAAPSVFIFPPSDEQLKSGTASVVCLLNNFYPREAKVQWKVDNALQSGNSQESVTEQDSKDSTYSLSSTLTLSKADYEKHKVYACEVTHQGLSSPVTKSFNRGEC

Source: US20210388087A1 (Chugai, published 2021)
